In this test the target is T1, human alpha2-macroglobulin (a2M) (human, UniProt P01023 24-1474).
T1 construct: human alpha2-macroglobulin bought from Biodesign; source: bought: Biodesign, MD, USA
T1 sequence (looked up): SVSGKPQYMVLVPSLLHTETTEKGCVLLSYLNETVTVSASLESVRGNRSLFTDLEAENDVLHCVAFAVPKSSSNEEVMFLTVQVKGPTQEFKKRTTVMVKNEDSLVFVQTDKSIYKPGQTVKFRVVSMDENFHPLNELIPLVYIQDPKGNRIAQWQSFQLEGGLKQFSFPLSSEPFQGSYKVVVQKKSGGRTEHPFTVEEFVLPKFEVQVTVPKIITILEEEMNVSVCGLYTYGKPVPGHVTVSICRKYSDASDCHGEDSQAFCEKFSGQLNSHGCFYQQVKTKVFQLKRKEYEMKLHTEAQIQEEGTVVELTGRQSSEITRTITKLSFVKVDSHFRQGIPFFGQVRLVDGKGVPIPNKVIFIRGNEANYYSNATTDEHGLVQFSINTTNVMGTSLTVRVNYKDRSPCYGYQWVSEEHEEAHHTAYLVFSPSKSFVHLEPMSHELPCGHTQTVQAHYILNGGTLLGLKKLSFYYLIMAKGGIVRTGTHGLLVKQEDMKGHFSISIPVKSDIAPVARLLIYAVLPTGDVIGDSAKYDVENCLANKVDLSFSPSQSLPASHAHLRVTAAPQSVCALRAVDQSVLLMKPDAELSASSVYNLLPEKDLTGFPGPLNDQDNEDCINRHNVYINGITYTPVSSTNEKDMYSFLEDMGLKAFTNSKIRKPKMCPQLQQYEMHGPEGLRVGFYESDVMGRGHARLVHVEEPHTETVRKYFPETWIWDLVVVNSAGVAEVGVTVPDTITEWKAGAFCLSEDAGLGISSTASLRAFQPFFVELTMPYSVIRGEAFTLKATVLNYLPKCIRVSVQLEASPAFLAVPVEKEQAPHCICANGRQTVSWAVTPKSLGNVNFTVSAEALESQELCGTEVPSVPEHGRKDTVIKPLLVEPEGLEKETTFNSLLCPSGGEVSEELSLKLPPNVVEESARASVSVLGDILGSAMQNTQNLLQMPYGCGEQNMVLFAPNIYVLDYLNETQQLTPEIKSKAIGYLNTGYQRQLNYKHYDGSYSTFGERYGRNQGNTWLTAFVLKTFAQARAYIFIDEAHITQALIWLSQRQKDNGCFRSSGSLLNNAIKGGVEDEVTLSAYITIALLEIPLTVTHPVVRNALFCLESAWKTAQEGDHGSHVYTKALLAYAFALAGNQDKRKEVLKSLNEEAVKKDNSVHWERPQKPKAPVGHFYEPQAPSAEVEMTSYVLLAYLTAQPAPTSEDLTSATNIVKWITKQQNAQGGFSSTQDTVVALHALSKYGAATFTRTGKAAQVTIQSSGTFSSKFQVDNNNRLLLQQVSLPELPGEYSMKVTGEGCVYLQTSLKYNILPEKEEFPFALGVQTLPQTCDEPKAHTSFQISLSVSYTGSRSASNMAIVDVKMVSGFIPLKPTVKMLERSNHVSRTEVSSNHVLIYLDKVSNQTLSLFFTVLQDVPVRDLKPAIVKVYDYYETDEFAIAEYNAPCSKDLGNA
The experiment in a line: loss of PSA immunoreactivity after incubation; human a2M incubated with twofold molar excess of PSA for 4 h at 37 C, used without further purification; PSA concentration determined before and after incubation. Conditions: both partners purified.

We go through one molecule from PMC2063392, “Antigenic determinants of prostate-specific antigen (PSA) and development of assays specific for different forms of PSA” (British Journal of Cancer, 1997).

B1: prostate-specific antigen (PSA) (enzyme)
chain: not shown
notes: human prostate-specific antigen (PSA), 32 to 33-kDa single-chain glycoprotein from seminal plasma; the preparation also holds 'nicked' (internally cleaved) forms; also called F-PSA; free PSA; source: purified from pooled seminal plasma from healthy volunteers (ion-exchange chromatography and gel chromatography); also used unpurified in seminal plasma
Take B1: the binding result is reported as “binds”.
